{
  "source": "paper doi:10.1101/2020.07.23.218024",
  "about": "(bioRxiv, 2020)",
  "binders": {"B1": {"name": "GST-PEX14-NTD K56A (domain or fragment)", "chain": "MASSEQAEQPSQPSSTPGSENVLPREPLIATAVKFLQNSRVRQSPLATRRAFLKKAGLTDEEIDMAFQQSGTAADEPS"}, "B2": {"name": "GST-PEX14-NTD F52A/K56A (domain or fragment)", "chain": "B1 chain with F52A"}, "B3": {"name": "GST-PEX14-NTD K54A (domain or fragment)", "chain": "B1 chain with K54A, A56K"}, "B4": {"name": "LVSEY peptide (peptide)", "peptide": "MNDLVSEYQQYQDAT"}, "B5": {"name": "WAQEF peptide (peptide)", "peptide": "ALSENWAQEFLAAGDA"}, "B6": {"name": "FLHWY peptide (peptide)", "peptide": "RKAFLHWYTGEGMDE"}, "B7": {"name": "GST-PEX14-NTD (domain or fragment)", "chain": "MASSEQAEQPSQPSSTPGSENVLPREPLIATAVKFLQNSRVRQSPLATRRAFLKKKGLTDEEIDMAFQQSGTAADEPSSL"}, "B8": {"name": "His-PEX14-NTD (domain or fragment)", "chain": "B7 chain"}, "B9": {"name": "GST-PEX14-NTD F52A (domain or fragment)", "chain": "TPGSENVLPREPLIATAVKFLQNSRVRQSPLATRRAALKKKGLTDEEIDMAFQQSGTAADEPSSL"}, "B10": {"name": "PEX14-NTD (as used in ITC) (domain or fragment)", "chain": "B9 chain with A37F"}},
  "key": {"[1]": {"target": "microtubules / purified porcine brain tubulin (porcine)", "test": "ELISA"}, "15N-PEX14(16–80W) [2]": {"target": "T1, 15N-PEX14(16–80W) (human, UniProt O75381 16-80, 15N-labelled)", "T1 chain": "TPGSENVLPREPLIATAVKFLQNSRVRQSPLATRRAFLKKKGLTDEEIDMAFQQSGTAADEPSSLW", "test": "NMR titration"}, "15N-PEX14(16–80W) [3]": {"target": "T1, 15N-PEX14(16–80W)", "test": "NMR titration"}, "[4]": {"target": "full-length His6-TEV-PEX5S (human, UniProt P50542-2 1-602)", "test": "ELISA"}, "ß-tubulin(388–444)": {"target": "ß-tubulin(388–444) (human, UniProt P07437 388-444)", "sequence (P07437 388-444)": "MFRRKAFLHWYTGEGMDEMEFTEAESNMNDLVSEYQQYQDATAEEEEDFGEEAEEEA", "test": "ITC"}},
  "note": "Positions count from the first letter of the chain named. Names may count otherwise.",
  "data": [
    {"binder": "B1", "values": [
      {"measurement": "Kd", "setting": "[1]", "value": "0.0125 ± 0.0013", "unit": "µM"}
    ]},
    {"binder": "B2", "values": [
      {"measurement": "Kd", "setting": "[1]", "value": "0.089 ± 0.017", "unit": "µM"}
    ]},
    {"binder": "B3", "values": [
      {"measurement": "Kd", "setting": "[1]", "value": "0.0039 ± 0.0002", "unit": "µM"}
    ]},
    {"binder": "B4", "values": [
      {"measurement": "Kd", "setting": "15N-PEX14(16–80W) [2]", "value": "~5", "unit": "µM"}
    ]},
    {"binder": "B5", "values": [
      {"measurement": "binding result", "setting": "15N-PEX14(16–80W) [3]", "value": "binds"}
    ]},
    {"binder": "B6", "values": [
      {"measurement": "Kd", "setting": "15N-PEX14(16–80W) [2]", "value": "~282", "unit": "µM"}
    ]},
    {"binder": "B7", "values": [
      {"measurement": "Kd", "setting": "[4]", "value": "~0.0005", "unit": "µM"}
    ]},
    {"binder": "B8", "values": [
      {"measurement": "Kd", "setting": "[4]", "value": "~0.0013", "unit": "µM"}
    ]},
    {"binder": "B9", "values": [
      {"measurement": "Kd", "setting": "[1]", "value": "0.039 ± 0.0074", "unit": "µM"}
    ]},
    {"binder": "B10", "values": [
      {"measurement": "stoichiometry N", "setting": "ß-tubulin(388–444)", "value": 2}
    ]}
  ]
}
